According to patent US20100098630A1, “Phenazine and Quinoxaline Substituted Amino Acids and Polypeptides” (AMBRX, INC., priority 2006, published 2010):

Target: T1, GH receptor-producing cells (Homo sapiens, UniProt P10912)
T1 sequence (P10912 19-638): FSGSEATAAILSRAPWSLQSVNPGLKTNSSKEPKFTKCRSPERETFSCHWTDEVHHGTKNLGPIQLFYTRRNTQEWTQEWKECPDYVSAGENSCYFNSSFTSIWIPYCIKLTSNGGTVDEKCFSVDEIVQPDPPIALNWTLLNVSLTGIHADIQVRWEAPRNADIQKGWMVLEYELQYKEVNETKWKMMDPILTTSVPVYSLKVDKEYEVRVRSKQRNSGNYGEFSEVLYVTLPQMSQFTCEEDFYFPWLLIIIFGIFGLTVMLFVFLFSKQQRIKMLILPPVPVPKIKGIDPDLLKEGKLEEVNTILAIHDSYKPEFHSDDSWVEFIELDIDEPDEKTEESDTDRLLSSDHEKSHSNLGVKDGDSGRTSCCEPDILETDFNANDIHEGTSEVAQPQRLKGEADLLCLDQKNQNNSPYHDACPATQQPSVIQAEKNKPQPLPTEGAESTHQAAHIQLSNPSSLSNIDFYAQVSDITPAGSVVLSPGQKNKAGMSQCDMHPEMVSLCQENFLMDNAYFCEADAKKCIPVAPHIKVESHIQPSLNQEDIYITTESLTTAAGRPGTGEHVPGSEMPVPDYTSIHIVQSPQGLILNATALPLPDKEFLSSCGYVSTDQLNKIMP
Experiment: Cell binding assays (competition with 125I-GH)
Conditions: unlabeled competitor, 0° C., 90 minutes
Procedure: Cells are then resuspended and layered over 200 μl ice cold FCS in a 350 μl plastic centrifuge tube and centrifuged (1000 g; […]). The pellet is collected by cutting off the end of the tube and pellet and supernatant counted separately in a gamma counter (Packard).
Specific binding (cpm) is determined as total binding in the absence of a competitor (mean of duplicates) minus binding (cpm) in the presence of 100-fold excess of unlabeled GH (non-specific binding). The non-specific binding is measured for each of the cell types used.

In the case of “GM-CSF: granulocyte-macrophage colony stimulating factor, negative control”, the “inhibition of 125I-GH binding” value is reported as “not”.
